From publication PMC3440371, “Non-Covalent Interaction between Polyubiquitin and GTP Cyclohydrolase 1 Dictates Its Degradation” (PLoS ONE, 2012)

Target: T1, polyubiquitin chains, endogenous in HEK293 cells (human (endogenous in HEK293), UniProt P0CG48 1-76)
T1 construct: ubiquitin (76 amino acids), cut product of the polyubiquitin precursor, joined into endogenous polyubiquitin chains; Precipitated or detected with a polyclonal ubiquitin antibody; seen as smeared bands; source: endogenous, HEK293 lysate
Assay: co-IP; lysates of HEK293 cells transfected with FLAG-GCH1 or mutants for 2 days, immunoprecipitated with the ubiquitin antibody and protein A/G beads; blot with FLAG antibody; empty vector as control
Conditions: partners not purified

fold change of ubiquitin binding against wild-type FLAG-GTPCH1: ~4.5 fold
B1: FLAG-GTPCH1 I131L (natural protein, human, UniProt P30793 1-250, looked up)
chain: MEKGPVRAPAEKPRGARCSNGFPERDPPRPGPSRPAEKPPRPEAKSAQPADGWKGERPRSEEDNELNLPNLAAAYSSILSSLGENPQRQGLLKTPWRAASAMQFFTKGYQETISDVLNDAIFDEDHDEMVLVKDIDMFSMCEHHLVPFVGKVHIGYLPNKQVLGLSKLARIVEIYSRRLQVQERLTKQIAVAITEALRPAGVGVVVEATHMCMVMRGVQKMNSKTVTSTMLGVFREDPKTREEFLTLIRS
notes: GTP cyclohydrolase 1 (GTPCH1), human, full-length GCH1 cDNA with the point mutation I131L; also called FLAG-GCH1 I131L; source: HEK293, transfected (pCI-neo), in lysate; not shown: FLAG, C-terminal, kept
